Assay results reported in patent CN116745314A (VIR BIOTECHNOLOGY CO LTD, dated 2023).

Target: spike glycoprotein of live SARS-CoV-2 (isolate USA-WA1/2020) (SARS-CoV-2, UniProt P0DTC2 14-1273)
Assay: cell-based or functional assay

B1: S2E12 (antibody, V domains shown)
VH: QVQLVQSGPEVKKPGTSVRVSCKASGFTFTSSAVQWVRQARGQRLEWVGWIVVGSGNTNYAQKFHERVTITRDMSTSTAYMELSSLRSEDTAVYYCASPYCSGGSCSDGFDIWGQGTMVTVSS
VL: DIVLTQTPGTLSLSPGERATLSCRASQSVSSSYLAWYQQKPGQAPRLLIYGASSRATGIPDRFSGSGSGTDFTLTISRLEPEDFAVYYCQQYVGLTGWTFGQGTKVEIK
B1 was tested, and the “EC50 (live SARS-CoV-2 neutralisation)” value was 5 ng/mL and the “IC50 (live SARS-CoV-2 neutralisation)” value was 5.41 ng/mL.
